Legend:
[1] = biological target: T1, ATAD3A (human protein having the amino acid sequence SEQ ID NO:6) (human, UniProt Q9NVI7 2-586, limits assumed); assay: CR2361 affinity column loaded with NB4 cell lysate, elution at pH 2.7, SDS-PAGE bands identified by MALDI-MS
T1 construct: Endogenous protein from a RIPA lysate of NB4 cells; Bands of 30, 40 and 75 kDa eluted from the CR2361 column gave ATAD3A peptides; No peptides were identified from the 150 kDa band
T1 sequence: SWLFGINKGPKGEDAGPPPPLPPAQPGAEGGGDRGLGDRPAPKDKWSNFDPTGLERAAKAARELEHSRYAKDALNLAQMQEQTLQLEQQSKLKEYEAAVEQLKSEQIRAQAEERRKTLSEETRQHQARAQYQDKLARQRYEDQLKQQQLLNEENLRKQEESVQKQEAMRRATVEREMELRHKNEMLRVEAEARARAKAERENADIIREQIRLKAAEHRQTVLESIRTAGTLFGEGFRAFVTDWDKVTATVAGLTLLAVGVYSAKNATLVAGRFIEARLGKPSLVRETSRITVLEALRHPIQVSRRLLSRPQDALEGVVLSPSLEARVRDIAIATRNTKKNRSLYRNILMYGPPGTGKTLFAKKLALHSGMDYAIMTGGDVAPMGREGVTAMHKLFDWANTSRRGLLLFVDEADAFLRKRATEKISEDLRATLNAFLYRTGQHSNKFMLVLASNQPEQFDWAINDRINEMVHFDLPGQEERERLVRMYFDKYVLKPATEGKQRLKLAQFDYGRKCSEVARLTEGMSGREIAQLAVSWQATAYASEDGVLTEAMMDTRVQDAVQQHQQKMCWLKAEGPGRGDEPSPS
Description: In advance the IgG1s were passed over a 100 kDa ultracentrifugal device to remove incomplete small IgG fragments.
For the purification of the target antigen of CR2361, an affinity column was prepared as described above for CR2401. A cell lysate of 4*10⁹ NB4 cell was prepared in RIPA buffer, according to the method described in Example 5. The cell lysate was treated essentially as described above and applied to the negative control affinity column that was connected in series to the CR2361 affinity column and an AKTA FPLC 900. The system was equilibrated with RIPA buffer. The lysate was applied to the columns at 1 ml/min and the columns were washed with 5 column volumes of RIPA buffer, followed by a salt gradient from 150 mM NaCl to 500 mM NaCl, a wash with 5 column volumes TX-100 buffer (1% Triton X-100, 150 mM NaCl, 50 mM Tris pH 7.4, protease inhibitors (Roche)) and an elution of 5 column volumes glycine, pH 2.7, whereby after 1 column volume of elution buffer the flow through was put for 10 minutes on hold to enhance the release of immune complexes. Next, the column was washed with 5 column volumes of TX-100 buffer. The eluted fractions of 0.5 ml were neutralized with 20 μl 2 M Tris/HCl, pH 7.4, and 20 μl of the samples were run on a non-reducing SDS-PAGE Criterion gel and stained with silver stain according to standard techniques known to the skilled artisan. […]

[2] = biological target: T2, ATAD3Amyc (ATAD3A with a myc tag at the 3' end) (human, UniProt Q9NVI7 1-586); assay: immunoprecipitation from lysate of transfected HEK293T cells, immunoblot with anti-myc
T2 construct: Expressed in transfected HEK293T cells and immunoprecipitated from a 1% Triton X-100 lysate; also called 3' myc-tagged ATAD3A; not shown: C-terminal myc tag, in frame from vector pcDNA3.1/hismycA
T2 sequence: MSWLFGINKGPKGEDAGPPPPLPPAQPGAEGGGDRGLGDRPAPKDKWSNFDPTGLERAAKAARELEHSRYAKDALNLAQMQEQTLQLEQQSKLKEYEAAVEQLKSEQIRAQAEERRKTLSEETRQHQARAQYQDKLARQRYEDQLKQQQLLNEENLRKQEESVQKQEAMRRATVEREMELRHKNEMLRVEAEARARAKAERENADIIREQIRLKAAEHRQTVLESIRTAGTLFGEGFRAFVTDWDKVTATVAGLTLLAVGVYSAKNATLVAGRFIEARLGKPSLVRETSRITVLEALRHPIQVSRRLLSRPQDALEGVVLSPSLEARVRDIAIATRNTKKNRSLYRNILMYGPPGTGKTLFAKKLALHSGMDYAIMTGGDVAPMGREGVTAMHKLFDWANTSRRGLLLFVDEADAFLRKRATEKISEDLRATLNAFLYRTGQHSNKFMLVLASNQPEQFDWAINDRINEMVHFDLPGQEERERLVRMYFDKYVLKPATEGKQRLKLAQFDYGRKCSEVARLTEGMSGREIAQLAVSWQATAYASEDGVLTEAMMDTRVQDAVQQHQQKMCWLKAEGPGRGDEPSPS

[3] = biological target: T3, mycATAD3A (ATAD3A with a myc tag at the 5' end) (human, UniProt Q9NVI7 2-586); assay: as above
T3 construct: Expressed in transfected HEK293T cells and immunoprecipitated from a 1% Triton X-100 lysate; also called 5' myc-tagged ATAD3A
T3 sequence: T1 sequence

Measured: binding result

B1: CR2361 IgG1 (antibody, V domains shown)
VH: EVQLVESGGGLVQPGRSLRLSCAASGFTFDDYGMSWVRQAPGKGLEWVSLISWDGGSTYYADSVKGRFTISRDNSKNSLYLQMNSLRAEDTAVYYCAKWAPSHSFDYWGQGTLVTVSS
VL: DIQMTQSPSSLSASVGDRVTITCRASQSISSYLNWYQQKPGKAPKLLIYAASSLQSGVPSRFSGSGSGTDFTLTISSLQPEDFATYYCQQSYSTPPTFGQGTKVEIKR
notes: also called IgG1 CR2361; CR24361 (apparent misprint)
binds: all assays above

— patent US20100297153A1 (CRUCELL HOLLAND B V, published 2010)
